Drawing on PMC6104945, “Structures of NHBA elucidate a broadly conserved epitope identified by a vaccine induced antibody” (PLoS ONE, 2018), this text covers Kd for 1 molecule.

For the experiment, the target named is T1, FL NHBA variant p3 (strain MC58) (Neisseria meningitidis MC58, UniProt Q7DD37, strain).
T1 construct: also called NHBAp3 (MC58); source: recombinant, purified protein antigen
Kind of experiment: SPR; single-cycle kinetics, Biacore T200, 25°C; Fab 5H2 (~800-1100 RU) captured by anti-human Fab antibodies on CM5; NHBA antigen injected at 3.125-50 nM, 30 uL/min; HBS-EP pH 7.4; 1:1 Langmuir model with mass transfer term; triplicate. As to conditions: both partners purified.

B1: Fab 5H2 (Fab derived from the vaccine-elicited human monoclonal antibody 5H2) (Fab, V domains shown)
VH: QVQLQESGPGLVKPSETLSLTCTVSGGSVSSGSSYWTWIRQTPGKGLEWIGYTSYSGSTKYNPSLKSRVTLSVDMSKNQFSLKLKSVTAADTAVYFCARDRFDVASGSSFDFWGQGTLVTVSS
VL: EIVMTQTPSSLSASVGDRVTITCRASQSISNYLNWYQQKPGTAPKLLTYAASSLGSGVPSRFSGSGSGTDLTLTISSLRPEDFATYYCQQSYGSPTFGQGTKLEIR
notes: they are in the structures deposited here: PDB 5NYX chains H, M, O and PDB 5O1R chains H, I (residues Q1-C226 modelled); they are in the structures deposited here: PDB 5NYX chains L, N, P and PDB 5O1R chains L, M (residues E1-E212 modelled); Recombinant Fab; variable region genes synthesised; also called huFab 5H2; source: Expi293 cells, transient transfection, purified from supernatant …
B1 displayed a dissociation constant (Kd) of 0.4 nM.
